Reference: patent publication US10428347B2, “Herbicide-detoxifying enzymes and uses thereof” (priority 2017, dated 2019)

What was measured:
[1] = NADPH consumption by immobilized monooxygenases with dicamba; format: biochemical; settings: immobilized enzyme, dicamba 150 μM, 30° C., 60 minutes, vs no enzyme negative control (FIG. 3)
[2] = NADPH consumption by immobilized monooxygenases with 2,4-D; format: biochemical; settings: immobilized enzyme, 2,4-D 150 μM, 30° C., 60 minutes, vs no enzyme negative control (FIG. 3)
Description: Monooxygenases can be used to detoxify herbicides in a solution. Monooxygenases use NADPH as a co-factor when degrading substrates. Consumption of NADPH is proportional to the degradation of the substrate.
The ability of each of these enzymes to detoxify 2,4-D was evaluated in a similar manner. […] Aliquots were taken from the samples at 30 minute and one hour timepoints, and NADPH consumption was assessed by measuring absorbance at 340 nm.
(§1) An additional experiment was performed to assess the substrate specificity of the salicylate monooxygenase (SM, SEQ ID NO: 21). […] The assay buffer also contained 0.5 mM FeSO4, 0.5 mM NADPH, 10 mM MgCl2, and 25 mM HEPES (pH 7). After 60 minutes, absorbance at 340 nm was measured to detect NADPH consumption. Data are represented as averages+/−SD from three independent reads of each reaction.

[3] = NADPH consumption by immobilized salicylate monooxygenase with salicylic acid; format: biochemical; settings: immobilized enzyme, salicylic acid 150 μM, 30° C., 60 minutes (FIG. 3)
Description: as §1

lentil plants = test: Lentil seeds coated with immobilized enzyme, grown in dicamba-containing soil; format: in vivo
Description: For each treatment group, eighteen lentil seeds were coated with immobilized salicylate monooxygenase (SM, SEQ ID NO: 21) or hydroxyphenylacetate monooxygenase (HPAM, SEQ ID NO: 30), or with a water-only control (H2O) or a control containing only the particles used for immobilization, without any enzyme (“Particle Alone”). […] 50 ml of water was selected as this is the saturation point of this soil at this scale. Herbicides were allowed to sit in the soil for 24 hours before planting of coated seeds. Germination rate was measured at one week and root and shoot lengths were measured after two weeks.
Further data illustrating the protective effects of salicylate monooxygenase (SM) and hydroxyphenylacetate monooxygenase (HPAM) on lentil plants grown in dicamba-containing soil are provided in FIGS. 6-9. Lentil seeds were treated as described above with water alone, particle alone, or enzyme immobilized on a particle. […] Growth (shoot and root length) was measured at two weeks.

soybean seedlings = test: Spray of enzyme-treated dicamba solution onto soybean seedlings; format: in vivo; settings: 208 μM dicamba, immobilized enzyme, 30° C., soybean seedlings, one week
Description: Salicylate monooxygenase (SM, SEQ ID NO: 21) and hydroxyphenylacetate monooxygenase (HPAM, SEQ ID NO: 30) were immobilized on particles. […] Aliquots (1 ml) were taken from incubated samples at 0 minutes, 10 minutes, 30 minutes, 1 hour, 5 hours, 24 hours and 30 hours after the introduction of SM and immediately frozen to stop the detoxification reaction. NADPH consumption was quantified by measuring loss of absorbance at 340 nm using a spectrophotometer. Results for SM are shown in panel A of FIG. 10 and results for HPAM are shown in panel A of FIG. 11. Consumption of NADPH is proportional to the degradation of dicamba.
Immediately after taking the absorbance measurements, the 1 ml aliquots were mixed with a nonionic organosilicone surfactant copolymer (0.1% SILWET L77) and 200 μL of the mixture was sprayed onto 2.5-week-old soybean seedlings (six plants per treatment group, on average). The use of the surfactant ensured even distribution of the solutions on the plants. Control plants were sprayed with water+surfactant alone or dicamba+surfactant alone. After one week, the degree of herbicide damage or the degree of protection from dicamba-induced injury (in plants treated with SM) was assessed visually.

[4] = Absorbance spectra assay of 2,4-D degradation by ChD or CAC; format: biochemical; settings: 2,4-D 200 mg/L + enzyme at 20X dilution (5 μM), one hour at 37° C.
[5] = Absorbance spectra assay of MCPA-4 amine degradation by ChD or CAC; format: biochemical; settings: one hour at 37° C.
Description: (§2) Small scale (1 mL) assays were performed to evaluate the ability of ChD and CAC to degrade MCPA-4 amine or mecoprop.
(§3) MCPA-4 amine and mecoprop have absorbance maxima (Amax) at approximately 230 and 280 nm. […] MCPA-4 amine or mecoprop end product generation is directly proportional to the degradation MCPA-4 amine or mecoprop, respectively.

[6] = Absorbance spectra assay of mecoprop degradation by ChD or CAC; format: biochemical; settings: one hour at 37° C.
Description: as §2, §3

[7] = Absorbance spectra assay of dicamba degradation by ChD or CAC; settings: dicamba 200 mg/L + enzyme at 20X dilution (5 μM), one hour at 37° C.
soybean plants [8] = test: Field soybean plant protection assay with dicamba, CAC or ChD and MnSO4; settings: field soybean V3-V6, dicamba reaction buffer 200 ppm with 50 mM MnSO4, after 11 days
Description: The CAC and ChD enzymes were generated in production batches as previously described and divided up into aliquots and centrifuged to remove any cellular debris. […] The dilution to achieve 200 ppm or 200 mg/L was made in 25 mM HEPES pH 7 in a 10 mL total volume. […] To each treatment, 0.01% SILWET L-77 surfactant was added. Then, 4 mL of reaction solution was applied evenly across 20 plants and compared to the untreated control plants applied to soybean grown in the same location in the field to minimize any field variability. After 11 days, the average trifoliate damage was evaluated by visual scoring.

soybean plants [9] = test: Soybean seed treatment with chlorothalonil dehalogenase, simulated spray drift of dicamba or 2,4-D; format: in vivo; settings: soybean seed coated with 3 uL enzyme, 4 weeks after planting; for Percentage Increase in Plant Height Compared to Untreated Seed (2,4-D; Weedar ®64 Spray Treatment) / Percentage Increase in Total Plant Biomass Compared to Untreated Seed (2,4-D; Weedar ®64 Spray Treatment): over the top 2,4-D 500 ppm; for Percentage Increase in Plant Height Compared to Untreated Seed (Dicamba; Clash ™ Spray Treatment) / Percentage Increase in Total Plant Biomass Compared to Untreated Seed (Dicamba; Clash ™ Spray Treatment): over the top dicamba 100 ppm
Description: Soybean (variety Asgrow AG4034) seed received a seed treatment with chlorothalonil dehalogenase (SEQ ID NO: 169) enzyme obtained from a production batch produced in a manner similar to that was described previously to generate the SM1 enzyme. Seed treatments were applied prior to planting. […] Seeds were then planted directly into 39.7 cm^3 pots containing a mixture of 3:1 Timberline top soil to MIRACLE GRO potting soil at a depth of 2.54 cm, with 2 seeds per pot. After planting, 50 mL of room temperature water was added to each pot to allow for germination. […] The treatments were then placed in a greenhouse and randomized using a complete block design to adjust for temperature and lighting differences. The plants received the same day/night cycle that would occur in the field on a summer's day. After the initial watering, plants received the same watering regimes. […] The soybean plants were then harvested and measured for biomass and plant height 4 weeks after planting.

soybean plants [10] = test: V1 soybean bioassay of dicamba reacted with ChD with or without MnSO4; settings: dicamba 100-200 ppm
Description: Soybean plants (variety Morsoy Xtra) were planted in Timberline soil (2 seeds per pot) and grown for 12 days under controlled environmental growth conditions: 300 μmol m^−2 s^−1 (light photons) for a 13/11 light/day cycle and a 21° C. day/15° C. night temperature range until the V1 stage of development.
The dilution to achieve 100 ppm or 100 mg/L was made in 25 mM HEPES pH 7 in a 10 mL total volume. […] The ChD enzyme production was centrifuged to remove any cellular debris and then divided into aliquots of 100 μL containing the Bacillus subtillis (A64) filtrate with the ChD expressed enzyme. […] The reactions were incubated at 37° C. with 400 ppm stirring for two hours. Aliquots of the reactions were collected and stored at −80° C.

[11] = 2,4-D degradation by TfdA (2,4-dichlorophenol colorimetric assay and HPLC); format: biochemical
Description: They were cloned, expressed, and produced in production batches as previously described for SM1 and other pesticide detoxifying enzymes. […] Reactions were then added to a 15 mL conical tube and placed in a shaker at 30° C. Aliquots consisting of 1 mL were taken from each reaction at the desired time points and flash frozen in a −80° C. freezer for later testing.
The 2,4-D degradation reaction samples were defrosted and vortexed. Samples consisting of 200 μL of each reaction were removed and placed in a 96 well plate. To each well on the assay plate containing a reaction sample, […] pH 10 (0.309 g boric acid, 0.373 g potassium chloride, 4.4 mL 1 M NaOH per 100 mL solution), 2 μL 2% 4-aminoantipyrine, and 2 μL 8% potassium ferricyanide were added. The wells were mixed by back pipetting. The plate was then covered with a film and placed in a 30° C. incubator for 1 hour.

[12] = listed as Chlorothalonil dehalogenase (SEQ ID NO: 169)

B1: SM: salicylate monooxygenase from Bacillus cereus BGSC 6E1, amino acid SEQ ID NO: 21 (nucleotide SEQ ID NO: 1) (protein, listed as Bacillus cereus)
chain: MNNVIIIGGGIAGLCAAISLQKIGLDVKVYDKNTEPTVAGAGIIIAPNAMQALELYGISKKIKKFGNESDGFNLVSEKGTTFNKLIIPTCYPKMYSIHRKDLHQLLLSELKEDTVKWGKECVKIEQNEANALKIVFQDGSEALGNILIAADGIHSVIRKQVTQGDNYRYAGYTCWRGVTPANNLSLTNDFIETWGTNGRFGIVPLPNNEVYWYALINAKARDPKYKAYTTTDLYNHFKTYHNPIPSILKNASDIDMIHRDIIDITPMKQFFDKRIVFIGDAAHALTPNLGQGACQAIEDAIILAECIKNNAHYRQAFLEYEQKRRDRIEKISNTAWKVGKMAQIESKPLTLVRNEVMKRMPKWVSEKRTHELYSFHL
[1]
  NADPH consumption: statistically significant levels
[2]
  NADPH consumption: statistically significant levels
[3]
  NADPH consumption: higher activity
Lentil plants; lentil seeds coated with immobilized enzyme, soil with dicamba 0.1× or […] label rate, one week, vs water and particle-alone controls
  germination rate: positive effect
Lentil plants; two-week-old lentil, soil with dicamba 0.1× label rate (0.588 mg/L), vs water only or particle only controls (FIG. 6, FIG. 8)
  shoot length: increased shoot lengths
Soybean seedlings
  incubation time of enzyme with dicamba giving plants equivalent to the water control: ≤ 10 min

B2: CAC: 6-chloronicotinic acid chlorohydrolase from Bradyrhizobiaceae strain SG-6C, amino acid SEQ ID NO: 167 (protein)
chain: MSLIAIKNADWILTMDGARRVIADGSILIDKDRIRAIGKSAVIEIPPETTKVIDGRGKVVLPGLIDSHTHHSLHLGRGLADECDIQTFLYRRLYPIEASLNDEDAYISALLCQLEMIKSGTTSIIDAGNYFPEATLRAFGTTGMRGVVARSTFDIPTSSLGSLPAQVFAEETNVALKRAEEFVERNSGACDGRVQAWLQLRVLPNCSDELCRGLKSIADRLGVRYEAHAAFTKEVYEASKLQFGKSEVRRLDDLGILGEGLLLAHMGWLTPRDILLLISSKTNVVLCPTSSVHQAMGSIAFGHVPELLEMGVNVALGTDGGPHGTNDLVRQIFVAAGGYKEVRLDATIMPPETVLEMATVNGARAMGMSDQVGSIEPGKKADITIFDSRRPEWRPLHNPVANLVYCANGNSADTVIVDGRILMENRKILTFNEDDVITEAQRRSVEIGARAGLLEYGRPRWPVH
modifications: Bradyrhizobiaceae family
[4]
  Percent (%) increase in 252 λ, (end product formed) compared to 2,4-D control: 148%
[5]; MCPA-4 amine 200 mg/L + enzyme at 20X dilution (5 μM)
  Percent (%) increase in 252 λ (end product formed) compared to MCPA-4-Amine control: 340%
[5]; MCPA-4 amine 200 mg/L + enzyme at 40X dilution ([…])
  Percent (%) increase in 252 λ (end product formed) compared to MCPA-4-Amine control: 195%
[6]; mecoprop 200 mg/L + enzyme at 20X dilution (5 μM)
  Percent (%) increase in 252 λ (end-product formed) compared to Mecoprop control: 346%
[6]; mecoprop 200 mg/L + enzyme at 40X dilution ([…])
  Percent (%) increase in 252 λ (end-product formed) compared to Mecoprop control: 130%
[7]
  Percent (%) increase in 259 λ (end product formed) compared to dicamba control: 344%
Soybean plants [8]
  average trifoliate damage score: 1.0

B3: ChD (SEQ ID NO: 169): chlorothalonil dehalogenase from Pseudomonas species strain CTN-3 with fifteen amino acid N-terminal truncation, SEQ ID NO: 169 (protein, listed as Pseudomonas sp.)
chain: MPLKFSGVLCASLLTITLSVAAHATELILDFNKVQMRSQQLAPGVYAHLPADSAELNAKGGVAGTSGGLIVGTRGAMLIETMLNRRLFDQVQALAKKEALGLPLLYAVNTSYHGDHSYGNMYLKAPTRVIQSTKTRDYVDGHLADDKAFMVKNFGAGRGVEQITARTGDILVPPGGRVSVDLGGKTVEIIDFGFAQTGGDLFVWEPQSKVMWTGNAVVASKPALPWLLDGKLVETLATLQKVYDFLPPDATIVPGHGVPMAREGLRWHLDYLAAVQAGVKDALARKLSLEQTVTELKMPEFRGYVLFDWVHPDLNVPAAYKDLAARP
Soybean plants [9]
  Percentage Increase in Plant Height Compared to Untreated Seed (2,4-D; Weedar ®64 Spray Treatment): +6%
  Percentage Increase in Total Plant Biomass Compared to Untreated Seed (2,4-D; Weedar ®64 Spray Treatment): +6%
  Percentage Increase in Plant Height Compared to Untreated Seed (Dicamba; Clash ™ Spray Treatment): +35%
  Percentage Increase in Total Plant Biomass Compared to Untreated Seed (Dicamba; Clash ™ Spray Treatment): +149%
Soybean plants [9]; [12]
  Percentage Increase in Plant Height Compared to Untreated Seed (2,4-D; Weedar ®64 Spray Treatment): +6%
  Percentage Increase in Total Plant Biomass Compared to Untreated Seed (2,4-D; Weedar ®64 Spray Treatment): +6%
  Percentage Increase in Plant Height Compared to Untreated Seed (Dicamba; Clash ™ Spray Treatment): +35%
  Percentage Increase in Total Plant Biomass Compared to Untreated Seed (Dicamba; Clash ™ Spray Treatment): +149%
Soybean plants [10]
  epinasty score and damage score on the trifoliate leaves compared to dicamba applied alone: decrease in damage
Soybean plants [8]
  average trifoliate damage score: 1.1

B4: TfdA: 2,4-D alpha-ketoglutarate dioxygenase with A198V mutation, SEQ ID NO: 277 (protein, UniProt P10088 1-287, looked up)
Alpha-ketoglutarate-dependent …: MSVVANPLHPLFAAGVEDIDLREALGSTEVREIERLMDEKSVLVFRGQPLSQDQQIAFARNFGPLEGGFIKVNQRPSRFKYAELADISNVSLDGKVAQRDAREVVGNFANQLWHSDSSFQQPAARYSMLSAVVVPPSGGDTEFCDMRAAYDALPRDLQSELEGLRAEHYALNSRFLLGDTDYSEAQRNAMPPVNWPLVRTHAGSGRKFLFIGAHASHVEGLPVAEGRMLLAELLEHATQREFVYRHRWNVGDLVMWDNRCVLHRGRRYDISARRELRRATTLDDAVV
[11]; 2,4-D with TfdA enzyme, after 1 hour of incubation, 30° C. (FIG. 19)
  2,4-dichlorophenol generated: over 2 mg/L
[11]; 2,4-D with TfdA, at 4 hours (FIG. 20)
  reduction of 2,4-D concentration quantified by HPLC: ~10%
